Test results: the Human Domainome abundance scans (Beltran et al. 2025)
± gives the uncertainty stated by the source.

B1: Unconventional myosin-Ie, residues 1051 to 1108; numbered along this chain, Q12965 (parent)
chain: PQVPQCKALYAYDAQDTDELSFNANDIIDIIKEDPSGWWTGRLRGKQGLFPNNYVTKI

Variants of: B1
Experiment: abundance fitness (aPCA) (normalised: wild type 0, dead -1); higher = more abundant; growth selection in yeast, the domain comes from the species named
Details: Homo sapiens

Variant | abundance fitness
I27H | -0.306 ± 0.069
Y10L | -0.16 ± 0.049
F50Y | -0.831 ± 0.28
C6P | -0.96 ± 0.31
G41K | -1.03 ± 0.28
T17W | -0.091 ± 0.035
T40W | -0.062 ± 0.051
Q15I | -0.172 ± 0.079
R44A | -0.074 ± 0.051
D16G | -0.156 ± 0.047
N52L | -0.027 ± 0.048
C6D | -0.807 ± 0.12
G41R | -0.906 ± 0.1
F50R | -0.968 ± 0.12
K46P | -0.715 ± 0.21
L9V | -0.148 ± 0.039
T17Q | -0.078 ± 0.055
C6S | -0.448 ± 0.085
C6W | -0.571 ± 0.072
P51A | -0.341 ± 0.05
A11R | 0.025 ± 0.03
Q15D | -0.145 ± 0.087
P51W | -0.143 ± 0.04
A8S | -0.714 ± 0.15

Variant | abundance fitness
R44D | -0.019 ± 0.073
I31A | -0.346 ± 0.035
C6M | -0.172 ± 0.12
D26W | -0.987 ± 0.2
D29G | -0.478 ± 0.045
Y12L | -0.892 ± 0.08
L49T | -0.288 ± 0.078
N23A | -0.01 ± 0.031
R44F | -0.134 ± 0.096
G37W | -0.677 ± 0.13
G37H | -0.883 ± 0.21
L9G | -0.624 ± 0.049
N23D | -0.047 ± 0.036
G45N | 0.06 ± 0.08
N25I | -0.833 ± 0.075
D34S | -0.126 ± 0.044
D34P | -0.15 ± 0.043
P35G | -0.021 ± 0.041
F22C | -0.895 ± 0.13
W39M | -0.35 ± 0.13
S21L | -0.939 ± 0.11
A11S | -0.023 ± 0.058
N23K | -0.008 ± 0.045
E19F | -0.095 ± 0.078

Variant | abundance fitness
Q47H | -0.149 ± 0.06
A24M | -0.034 ± 0.074
S36R | -0.073 ± 0.033
N25E | -0.117 ± 0.064
A8M | -0.817 ± 0.32
D26N | -0.676 ± 0.2
Q47E | -0.066 ± 0.046
A24K | -0.04 ± 0.045
D16L | -0.271 ± 0.046
D18R | -0.065 ± 0.037
A24Q | -0.164 ± 0.07
A24N | -0.648 ± 0.29
A24Y | -0.528 ± 0.18
C6V | -0.001 ± 0.043
Y54M | -0.16 ± 0.085
P51M | -0.484 ± 0.14
D29H | -0.193 ± 0.12
E33G | -0.935 ± 0.14
R42E | -0.049 ± 0.049
D34N | 0.014 ± 0.078
N53K | -0.066 ± 0.089
L20P | -1.11 ± 0.11
G48V | -0.756 ± 0.22
L43A | -0.123 ± 0.04

Variant | abundance fitness
N23Y | -0.155 ± 0.033
L43N | -0.331 ± 0.069
Q47N | -0.507 ± 0.24
K46Y | -0.351 ± 0.19
S21C | -0.219 ± 0.032
E19R | -0.189 ± 0.038
G45D | -0.075 ± 0.076
K32A | -0.056 ± 0.04
I27P | -0.681 ± 0.24
Q47S | -0.16 ± 0.076
L49N | -0.428 ± 0.11
L9I | -0.375 ± 0.13
K32E | 0.013 ± 0.064
I30M | -0.465 ± 0.097
Q47Y | 0.248 ± 0.15
P35R | -0.094 ± 0.04
T17G | -0.057 ± 0.044
P1G | -0.198 ± 0.065
Q47V | 0.041 ± 0.065
W39G | -0.453 ± 0.039
W39I | -0.179 ± 0.061
R42F | -0.193 ± 0.28
K57W | -0.554 ± 0.065
L9K | -0.187 ± 0.041

Variant | abundance fitness
L9C | -0.222 ± 0.068
Q47A | -0.222 ± 0.074
R44K | -0.181 ± 0.096
D26Q | -0.263 ± 0.11
K7Q | -0.287 ± 0.092
K46R | -0.01 ± 0.04
Q47L | -0.194 ± 0.066
D26E | -0.015 ± 0.046
G37A | -0.573 ± 0.043
I27C | -0.261 ± 0.059
G45C | -0.303 ± 0.086
I31L | 0.001 ± 0.042
T17R | -0.111 ± 0.049
A11H | -0.013 ± 0.078
W39S | -0.138 ± 0.048
C6K | -1 ± 0.18
Y10M | -0.158 ± 0.039
A14L | -0.98 ± 0.13
Q5I | -0.072 ± 0.18
W39C | -0.316 ± 0.076
Q2A | -0.091 ± 0.036
G41L | -0.474 ± 0.18
I27D | -0.618 ± 0.038
G37C | -0.584 ± 0.059

Variant | abundance fitness
S36D | -0.033 ± 0.039
D29M | -0.243 ± 0.076
V55E | -0.945 ± 0.13
Q2S | -0.223 ± 0.084
N25K | -0.198 ± 0.064
R42P | -0.897 ± 0.15
A14E | -0.695 ± 0.15
G41P | -0.826 ± 0.18
N23Q | -0.002 ± 0.04
S21N | -0.175 ± 0.093
P51E | -0.674 ± 0.072
R42M | -0.394 ± 0.14
Q47C | -0.236 ± 0.1
P35H | -0.623 ± 0.24
G41F | -0.756 ± 0.37
A24S | -0.108 ± 0.053
R42N | -0.005 ± 0.065
V55S | -0.732 ± 0.13
P1K | 0.169 ± 0.23
L49Q | -0.151 ± 0.075
P35N | -0.115 ± 0.058
I27W | -0.466 ± 0.048
N23P | -0.788 ± 0.041
V3I | -0.145 ± 0.079

Variant | abundance fitness
S36T | -0.085 ± 0.043
D29K | -0.555 ± 0.12
Q15L | -0.173 ± 0.04
A11L | -0.308 ± 0.056
G37T | -0.375 ± 0.09
I30V | 0.058 ± 0.054
G41A | -0.8 ± 0.045
Q47M | -0.169 ± 0.11
K57P | -0.218 ± 0.12
K46D | -0.33 ± 0.12
A14Q | -0.345 ± 0.08
E33S | -0.398 ± 0.045
N23L | -0.065 ± 0.028
P35I | -0.144 ± 0.081
S36Q | -0.024 ± 0.063
E19D | -0.54 ± 0.09
I58R | -0.32 ± 0.058
F50T | -1.08 ± 0.18
P51H | -0.264 ± 0.15
